Holding throughout (type): biochemical
One experiment addresses Kallikrein-3 (Homo sapiens, UniProt P07288). The experiment is described as follows: FRET peptide cleavage efficiency with Kallikrein-3. The conditions noted are these: peptide 200 uM, Kallikrein-3 2 μg/ml, 37° C., pH 8.
The next experiment addresses T1, MMP-2 (Homo sapiens, UniProt P08253).
T1 construct: purchased SIGMA PF023
T1 sequence (P08253 110-660): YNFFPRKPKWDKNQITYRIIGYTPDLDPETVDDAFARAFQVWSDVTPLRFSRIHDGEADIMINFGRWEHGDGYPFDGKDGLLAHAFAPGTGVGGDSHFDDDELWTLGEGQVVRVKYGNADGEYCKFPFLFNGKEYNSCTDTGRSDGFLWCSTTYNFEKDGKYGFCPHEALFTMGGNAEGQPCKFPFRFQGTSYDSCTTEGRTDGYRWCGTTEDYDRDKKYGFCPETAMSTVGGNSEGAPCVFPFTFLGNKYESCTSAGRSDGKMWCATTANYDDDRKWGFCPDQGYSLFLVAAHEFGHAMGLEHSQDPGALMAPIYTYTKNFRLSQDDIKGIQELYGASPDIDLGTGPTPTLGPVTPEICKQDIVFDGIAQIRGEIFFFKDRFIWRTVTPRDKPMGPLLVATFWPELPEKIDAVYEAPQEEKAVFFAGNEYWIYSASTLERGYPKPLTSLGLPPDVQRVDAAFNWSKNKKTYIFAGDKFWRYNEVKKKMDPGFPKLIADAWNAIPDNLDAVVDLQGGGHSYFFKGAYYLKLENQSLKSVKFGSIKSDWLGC
The experiment is described as follows: FRET peptide cleavage efficiency with MMP-2. The note with it: 200 uM linker, 1 ug/ml protease, 37° C., buffer C pH 7.5.

Another experiment concerns the target T2, matriptase (Homo sapiens, UniProt Q9Y5Y6).
T2 construct: purchased R&D Systems 3946-SEB
T2 sequence (Q9Y5Y6 615-855 limits assumed): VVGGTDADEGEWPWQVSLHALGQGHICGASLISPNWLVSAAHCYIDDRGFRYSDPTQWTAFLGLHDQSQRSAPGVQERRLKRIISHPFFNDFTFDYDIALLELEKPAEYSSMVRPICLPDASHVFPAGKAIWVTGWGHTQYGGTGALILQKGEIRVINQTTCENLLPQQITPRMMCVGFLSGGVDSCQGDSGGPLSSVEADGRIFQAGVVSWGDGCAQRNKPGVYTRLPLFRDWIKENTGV
The experiment is described as follows: FRET peptide cleavage efficiency with matriptase. The conditions noted are these: 200 uM linker, 1 ug/ml protease, 37° C., buffer B pH 9.0.

A further experiment addresses uPA (Homo sapiens, UniProt P00749). The experiment in a line: FRET peptide cleavage efficiency with uPA. The note with it: 200 uM linker, 1 ug/ml protease, 37° C., buffer A pH 8.5.

Square brackets hold non-standard residues; d marks the D form. Ends that are not written are not given here. Tyr(3-NO2) = N[C@@H](Cc1ccc(O)c([N+](=O)[O-])c1)C(=O)O; Nle = CCCC[C@H](N)C(=O)O; 2Abz = Nc1ccccc1C(=O)O

Kallikrein-3, sequence (P07288 25-261, species assumed): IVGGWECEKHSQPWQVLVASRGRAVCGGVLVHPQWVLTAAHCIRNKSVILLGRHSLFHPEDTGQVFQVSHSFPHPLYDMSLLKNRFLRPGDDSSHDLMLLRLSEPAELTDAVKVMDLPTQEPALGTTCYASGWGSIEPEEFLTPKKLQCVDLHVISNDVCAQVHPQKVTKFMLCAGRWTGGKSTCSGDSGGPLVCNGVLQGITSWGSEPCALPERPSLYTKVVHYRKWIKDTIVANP

For “KLYSSKQ ([2Abz]KLYSSKQ[Tyr(3-NO2)]-NH2) [LNK071]”, in the experiment with Kallikrein-3, the “Kallikrein-3 t = 1 h % cleavage” value turned out to be 23%, the “Kallikrein-3 t = 3 h % cleavage” value is on record as 55%, the “Kallikrein-3 t = 6 h % cleavage” value was found to be 83% and the “Kallikrein-3 t = 8 h % cleavage” value is 94%. In the experiment with MMP-2, the “% cleavage MMP-2 t = 15 min” value is listed as 1%, the “% cleavage MMP-2 t = 60 min” value was found to be 13% and the “% cleavage MMP-2 t = 120 min” value was found to be 28%. In addition, in the experiment with matriptase, the “% cleavage Matriptase t = 15 min” value is listed as 0%, the “% cleavage Matriptase t = 60 min” value amounted to 0% and the “% cleavage Matriptase t = 120 min” value was found to be 0%. In addition, in the experiment with uPA, the “% cleavage uPA t = 15 min” value is on record as 0%, the “% cleavage uPA t = 60 min” value came out at 0% and the “% cleavage uPA t = 120 min” value is 0%.

With “RRLHYSL ([2Abz]RRLHYSL[Tyr(3-NO2)]-NH2) [LNK073]”, in the experiment with Kallikrein-3, the “Kallikrein-3 t = 1 h % cleavage” value came to 20%, the “Kallikrein-3 t = 3 h % cleavage” value is listed as 51%, the “Kallikrein-3 t = 6 h % cleavage” value is 79% and the “Kallikrein-3 t = 8 h % cleavage” value is on record as 91%. In the experiment with MMP-2, the “% cleavage MMP-2 t = 15 min” value was found to be 1%, the “% cleavage MMP-2 t = 60 min” value was found to be 4% and the “% cleavage MMP-2 t = 120 min” value stood at 6%. For the same substance, in the experiment with matriptase, the “% cleavage Matriptase t = 15 min” value is reported as 1%, the “% cleavage Matriptase t = 60 min” value came to 3% and the “% cleavage Matriptase t = 120 min” value is reported as 5%. Besides, in the experiment with uPA, the “% cleavage uPA t = 15 min” value came to 0%, the “% cleavage uPA t = 60 min” value amounted to 0% and the “% cleavage uPA t = 120 min” value came to 0%.

Consider “HSSKLQL ([2Abz]HSSKLQL[Tyr(3-NO2)]-NH2) [LNK078]”, for which, in the experiment with Kallikrein-3, the “Kallikrein-3 t = 1 h % cleavage” value was found to be 10%, the “Kallikrein-3 t = 3 h % cleavage” value is given as 34%, the “Kallikrein-3 t = 6 h % cleavage” value is 64% and the “Kallikrein-3 t = 8 h % cleavage” value was determined as 79%. Besides, in the experiment with MMP-2, the “% cleavage MMP-2 t = 15 min” value was 3%, the “% cleavage MMP-2 t = 60 min” value came to 6% and the “% cleavage MMP-2 t = 120 min” value is given as 8%. Moreover, in the experiment with matriptase, the “% cleavage Matriptase t = 15 min” value is listed as 0%, the “% cleavage Matriptase t = 60 min” value was 0% and the “% cleavage Matriptase t = 120 min” value stood at 0%. Besides, in the experiment with uPA, the “% cleavage uPA t = 15 min” value was determined as 0%, the “% cleavage uPA t = 60 min” value turned out to be 0% and the “% cleavage uPA t = 120 min” value stood at 0%.

Turning to “RSSYYSL ([2Abz]RSSYYSL[Tyr(3-NO2)]-NH2) [LNK076]”, in the experiment with Kallikrein-3, the “Kallikrein-3 t = 1 h % cleavage” value worked out at 0%, the “Kallikrein-3 t = 3 h % cleavage” value was 0%, the “Kallikrein-3 t = 6 h % cleavage” value came out at 0% and the “Kallikrein-3 t = 8 h % cleavage” value worked out at 0%. For the same substance, in the experiment with MMP-2, the “% cleavage MMP-2 t = 15 min” value stood at 19%, the “% cleavage MMP-2 t = 60 min” value is given as 69% and the “% cleavage MMP-2 t = 120 min” value is on record as 92%. Further, in the experiment with matriptase, the “% cleavage Matriptase t = 15 min” value is 0%, the “% cleavage Matriptase t = 60 min” value is 0% and the “% cleavage Matriptase t = 120 min” value was found to be 0%. In addition, in the experiment with uPA, the “% cleavage uPA t = 15 min” value is listed as 0%, the “% cleavage uPA t = 60 min” value was 0% and the “% cleavage uPA t = 120 min” value stood at 0%.

Turning to “GSSVYSGR ([2Abz]GSSVYSGR[Tyr(3-NO2)]-NH2) [LNK080]”, in the experiment with Kallikrein-3, the “Kallikrein-3 t = 1 h % cleavage” value amounted to 16%, the “Kallikrein-3 t = 3 h % cleavage” value is 41%, the “Kallikrein-3 t = 6 h % cleavage” value is 68% and the “Kallikrein-3 t = 8 h % cleavage” value amounted to 79%. Also, in the experiment with MMP-2, the “% cleavage MMP-2 t = 15 min” value is given as 1%, the “% cleavage MMP-2 t = 60 min” value is listed as 3% and the “% cleavage MMP-2 t = 120 min” value came to 5%. In the experiment with matriptase, the “% cleavage Matriptase t = 15 min” value is reported as 2%, the “% cleavage Matriptase t = 60 min” value worked out at 6% and the “% cleavage Matriptase t = 120 min” value amounted to 10%. For the same substance, in the experiment with uPA, the “% cleavage uPA t = 15 min” value is recorded as 4%, the “% cleavage uPA t = 60 min” value is 17% and the “% cleavage uPA t = 120 min” value was 28%.

As to “SSQYSSPG ([2Abz]SSQYSSPG[Tyr(3-NO2)]-NH2) [LNK069]”, in the experiment with Kallikrein-3, the “Kallikrein-3 t = 1 h % cleavage” value was found to be 6%, the “Kallikrein-3 t = 3 h % cleavage” value came to 16%, the “Kallikrein-3 t = 6 h % cleavage” value was determined as 31% and the “Kallikrein-3 t = 8 h % cleavage” value is listed as 40%. In the experiment with MMP-2, the “% cleavage MMP-2 t = 15 min” value worked out at 1%, the “% cleavage MMP-2 t = 60 min” value is 6% and the “% cleavage MMP-2 t = 120 min” value came out at 13%. Also, in the experiment with matriptase, the “% cleavage Matriptase t = 15 min” value is reported as 0%, the “% cleavage Matriptase t = 60 min” value worked out at 0% and the “% cleavage Matriptase t = 120 min” value is listed as 0%. In the experiment with uPA, the “% cleavage uPA t = 15 min” value is 0%, the “% cleavage uPA t = 60 min” value is 0% and the “% cleavage uPA t = 120 min” value amounted to 0%.

As for “SS-Nle-YSSAG ([2Abz]SS[Nle]YSSAG[Tyr(3-NO2)]-NH2) [LNK081]”, in the experiment with Kallikrein-3, the “Kallikrein-3 t = 1 h % cleavage” value is 27%, the “Kallikrein-3 t = 3 h % cleavage” value is listed as 62%, the “Kallikrein-3 t = 6 h % cleavage” value is listed as 87% and the “Kallikrein-3 t = 8 h % cleavage” value was 94%. In the experiment with MMP-2, the “% cleavage MMP-2 t = 15 min” value is 3%, the “% cleavage MMP-2 t = 60 min” value was 11% and the “% cleavage MMP-2 t = 120 min” value was 19%. Besides, in the experiment with matriptase, the “% cleavage Matriptase t = 15 min” value came out at 0%, the “% cleavage Matriptase t = 60 min” value was found to be 0% and the “% cleavage Matriptase t = 120 min” value was 0%. Further, in the experiment with uPA, the “% cleavage uPA t = 15 min” value stood at 0%, the “% cleavage uPA t = 60 min” value is listed as 0% and the “% cleavage uPA t = 120 min” value is given as 0%.

With “RRLNYSL ([2Abz]RRLNYSL[Tyr(3-NO2)]-NH2) [LNK074]”, in the experiment with Kallikrein-3, the “Kallikrein-3 t = 1 h % cleavage” value is given as 23%, the “Kallikrein-3 t = 3 h % cleavage” value stood at 59%, the “Kallikrein-3 t = 6 h % cleavage” value is 87% and the “Kallikrein-3 t = 8 h % cleavage” value came out at 96%. In the experiment with MMP-2, the “% cleavage MMP-2 t = 15 min” value is 1%, the “% cleavage MMP-2 t = 60 min” value stood at 5% and the “% cleavage MMP-2 t = 120 min” value amounted to 9%. For the same substance, in the experiment with matriptase, the “% cleavage Matriptase t = 15 min” value is recorded as 2%, the “% cleavage Matriptase t = 60 min” value worked out at 6% and the “% cleavage Matriptase t = 120 min” value is on record as 10%. Moreover, in the experiment with uPA, the “% cleavage uPA t = 15 min” value is given as 0%, the “% cleavage uPA t = 60 min” value came to 0% and the “% cleavage uPA t = 120 min” value stood at 0%.

Take “ISQYSSAT ([2Abz]ISQYSSAT[Tyr(3-NO2)]-NH2) [LNK070]”: in the experiment with Kallikrein-3, the “Kallikrein-3 t = 1 h % cleavage” value came to 0%, the “Kallikrein-3 t = 3 h % cleavage” value is reported as 0%, the “Kallikrein-3 t = 6 h % cleavage” value worked out at 0% and the “Kallikrein-3 t = 8 h % cleavage” value was found to be 0%. Also, in the experiment with MMP-2, the “% cleavage MMP-2 t = 15 min” value worked out at 0%, the “% cleavage MMP-2 t = 60 min” value is recorded as 0% and the “% cleavage MMP-2 t = 120 min” value is recorded as 0%. Also, in the experiment with matriptase, the “% cleavage Matriptase t = 15 min” value is listed as 0%, the “% cleavage Matriptase t = 60 min” value turned out to be 0% and the “% cleavage Matriptase t = 120 min” value turned out to be 0%. Besides, in the experiment with uPA, the “% cleavage uPA t = 15 min” value is 0%, the “% cleavage uPA t = 60 min” value was 0% and the “% cleavage uPA t = 120 min” value is listed as 0%.

Regarding “GSSYYSGA ([2Abz]GSSYYSGA[Tyr(3-NO2)]-NH2) [LNK079]”, in the experiment with Kallikrein-3, the “Kallikrein-3 t = 1 h % cleavage” value stood at 34%, the “Kallikrein-3 t = 3 h % cleavage” value is 75%, the “Kallikrein-3 t = 6 h % cleavage” value is recorded as 99% and the “Kallikrein-3 t = 8 h % cleavage” value turned out to be 100%. Moreover, in the experiment with MMP-2, the “% cleavage MMP-2 t = 15 min” value was 10%, the “% cleavage MMP-2 t = 60 min” value is given as 42% and the “% cleavage MMP-2 t = 120 min” value was 70%. In addition, in the experiment with matriptase, the “% cleavage Matriptase t = 15 min” value is recorded as 0%, the “% cleavage Matriptase t = 60 min” value was determined as 0% and the “% cleavage Matriptase t = 120 min” value is given as 0%. Besides, in the experiment with uPA, the “% cleavage uPA t = 15 min” value is 0%, the “% cleavage uPA t = 60 min” value came out at 0% and the “% cleavage uPA t = 120 min” value amounted to 0%.

Source of the values: patent US20240400614A1, “CLEAVABLE PEPTIDES AND METHODS OF USE THEREOF” (Bright Peak Therapeutics AG, priority 2023, published 2024).
